Test results: patent US20160355576A1

Tests used:
[1] = molecular target: human wild-type TTR protein in native conformation (human) (UniProt P02766); experiment: SPR, antibody captured by anti-human IgG-Fc, TTR 3.2-316 nM, Langmuir 1:1 fit
[2] = molecular target: native TTR-L55P (human), P02766; experiment: as above; details: remark: other sources report otherwise
[3] = molecular target: native TTR-V30M (human), P02766; experiment: as above; details: remark: other sources report otherwise
[4] = molecular target: misfolded-aggregated human wild-type TTR (human), P02766; experiment: as above; details: remark: other sources report otherwise
[5] = molecular target: misfolded-aggregated human wild-type TTR (human), P02766; experiment: direct ELISA, antigen coated at 10 µg/ml; details: remark: other sources report otherwise
[6] = molecular target: misfolded-aggregated recombinant V30M-TTR (human), P02766; experiment: direct ELISA, antigen coated at 10 µg/ml; details: remark: other sources report otherwise

B1: NI-301.35G11 (antibody, V domains shown)
VH: EVQLVESGGGLVQPGGSLRLSCVASGFTFSSYAMSWVRQVPGKGLEWVSSISGSGDTTKYTDSVKGRFTISRDNSKNTVFLQMSSLRAEDTALYYCVKDGSGRIDPFALWGQGTMVTVSS
VL: EIVMTQSPLSLPVTLGQPASISCRSSRSLVYSDGNIYLNWFQQRPGQSPRRLIYKVSNRDSGVPDRFSGSGSDTDFTLRISRVEAEDVGVYYCMQGTHWPRTFGQGTKVEIK
In the case of B1, the Kd [1] is reported as greater than 316 nM, the Kd [2] is reported as greater than 100 nM and the Kd [3] is reported as 33 nM. It also gave a koff [3] of 0.00024 s⁻¹, a kon [3] of 7400 M⁻¹ s⁻¹ and a Kd [4] of 12 nM. The koff [4] was 0.00027 s⁻¹, the kon [4] was 23000 M⁻¹ s⁻¹ and the EC50 [5] was 3.9 nM. It also gave an EC50 [6] of 5 nM.
